In US8835136B2, “Engineered amine dehydrogenases and methods of use thereof” (Georgia Tech Research Corporation, priority 2012, dated 2014):
Like-named read-outs stand apart in the source and are kept apart here.

Tests used:
[1] = Temperature versus activity profile (PheDH-AmDH); format: biochemical
Experimental: The thermostability of the double variant K77S N276L was additionally determined by a temperature versus activity plot, showing the results of amination activity measured in 5 M NH4Cl/NH4OH buffer pH 9.6, 200 μM NADH, 20 mM PFPA for 2 minutes (FIG. 17). […] The near linear increase corresponds to a low activation energy of 241 J mol^−1. The maximum specific activity was 11.6 U mg^−1 at a temperature of 50° C. Above 50° C., the enzyme began to rapidly lose activity as a result of denaturation. This deactivation correlated well with the circular dichroism data, where a dramatic loss of secondary structure was observed from 50° C. to 70° C.

[2] = Conversion with GDH cofactor recycle system (PheDH-AmDH); format: biochemical; settings: 100 mL, 20 mM PFPA, 48 hours
Experimental: The GDH consumes glucose present in solution to cheaply and efficiently regenerate the NADH cofactor, allowing conversion to continue beyond stoichiometric depletion of NADH. In a 100 mL reaction volume containing 20 mM PFPA, conversion was allowed to continue for 48 hours followed by extraction and ^1H-NMR to confirm the product formation and conversion levels. […] Under the same reaction conditions, 17.46 mg of the AmDH enhanced the overall conversion to 93.8% and 73.9% yield. Evidence of chirality was indicated by different NMR signals of the C3 hydrogens (δ 2.67, 2.49) which are adjacent to the C2 stereocenter (FIG. 18).

[3] = Oxidative deamination, spectrophotometric assay at 340 nm; format: biochemical; settings: deamination, 0.1M glycine pH 10.0, 1 mM NAD+, 20 mM, 25° C.
Experimental: Activity of purified proteins was measured using a spectrophotometric assay at 340 nm, corresponding to the cofactor nicotinamide adenine dinucleotide (NADH, ε340=6220 M^−1 cm^−1) (Dawson, et al., Clarendon Press, (1989). For reductive amination, reactions took place in 500 mM NH4Cl/NH4OH at pH 9.6, with 200 μM NADH and 20 mM of the ketone substrate, unless otherwise specified. […] All reactions were performed at 25° C. unless otherwise specified. Enzyme was added in 10 μL aliquots in dilute concentrations. Enzyme concentrations varied upon activity levels with the substrate present, but were dilute enough to ensure linear conversion kinetics over the analytical time period (10 min to 30 min). Specific activities were then calculated from the stoichiometric conversion of cofactor as determine by the change in absorbance at 340 nm over time.
The enantioselectivity was initially estimated by measuring the deamination activity toward individual enantiomers of methylbenzylamine (MBA). […] A preference towards (R)-MBA over the corresponding (S)-enantiomer was evident in the discrepancies between the deamination activities of 0.586 U mg^−1 and 0.002 U mg^−1, respectively. These preliminary results were corroborated through direct measurement of the enantioselectivity of the MIBK amination in producing chiral 1,3-DMBA.

[4] = Enantioselectivity of PFPA amination, chiral gas chromatography; format: biochemical; settings: chiral GC after TFAA derivatization
Description: Equally important to conversion is maintaining the selectivity of the enzyme after altering the substrate specificity. Preservation of the wild type (S)-selectivity towards phenylalanine will result in the asymmetric production of (R)-1-(4-fluorophenyl)-propyl-2-amine due to a change in Cahn-Ingold-Prelaw priority. The product amine resulting from enzymatic conversion with the co-factor recycle was isolated and derivatized using trifluoroacetic anhydride for analysis via chiral gas chromatography. An enantiomeric excess of >99.8% toward (R)-1-(4-fluorophenyl)-propyl-2-amine was confirmed, however, further resolution of the selectivity was limited by the separation capability of the chiral column. Throughout all experiments, the (S)-enantiomer remained below the detection limits. Even as the enzyme approaches levels of conversion beyond 90%, the high enantioselectivity toward (R)-1-(4-fluorophenyl)-propyl-2-amine is maintained. This renders the AmDH/GDH system a viable method for the production of chiral amines.

[5] = Reductive amination of PFPA, spectrophotometric assay at 340 nm; format: biochemical
Experimental: (§1) Activity of purified proteins was measured using a spectrophotometric assay at 340 nm, corresponding to the cofactor nicotinamide adenine dinucleotide (NADH, ε340=6220 M^−1 cm^−1) (Dawson, et al., Clarendon Press, (1989). For reductive amination, reactions took place in 500 mM NH4Cl/NH4OH at pH 9.6, with 200 μM NADH and 20 mM of the ketone substrate, unless otherwise specified. For oxidative deamination, reactions took place in 0.1 M NaHCO3/Na2CO3 buffer at pH 10.0, with 1 mM NAD+ with 10 mM of the amine substrate of interest. All reactions were performed at 25° C. unless otherwise specified. Enzyme was added in 10 μL aliquots in dilute concentrations. Enzyme concentrations varied upon activity levels with the substrate present, but were dilute enough to ensure linear conversion kinetics over the analytical time period (10 min to 30 min). Specific activities were then calculated from the stoichiometric conversion of cofactor as determine by the change in absorbance at 340 nm over time.
The activity of the purified protein was evaluated using a spectrophotometric assay at 340 nm as described in Section 3.2.3 at 25° C. in various concentrations of NH4Cl/NH4OH buffer pH 9.6.
Active variants were identified by the rate of change in absorbance at 340 nm, corresponding to the fastest activity. […] Some variants consumed the cofactor too quickly (<5 min) to be observed over multiple time points, and gave low absorbance in the initial time point. These variants were included for further characterization. The successful variants were sequenced (MWG Operon), and each unique sequence was expressed in pET28a/BL21 for histag purification and determination of kcat and KM values with PFPA.

[6] = Reductive amination, spectrophotometric assay at 340 nm; format: biochemical; settings: 500 mM NH4Cl/NH4OH pH 9.6, 200 μM NADH, 20 mM, 25° C.
Experimental: as §1

[7] = Thermostability by circular dichroism (PheDH); format: physicochemical
Description: The thermostability of the AmDH was compared to its wild-type scaffold using two different methods, circular dichroism (CD) and a temperature versus activity profile. The mutation of the enzyme scaffold has affected the thermostability, in addition to the enzyme's function. […] Beyond 30 degrees, there is an earlier onset in the pronounced loss of structure of the double variant compared to the wild type; however, the slope folded fraction over temperature stays constant, indicative of constant enthalpy of melting. The K77S N276L mutations have slightly destabilized the protein structure, resulting in a melting point of 59.9° C., 4.4° C. less than the wild type. The specific cause for this change is difficult to determine. It likely to be either disruption of the ‘ideal’ packing of the wild-type enzyme's hydrophobic core or a net decrease in hydrophobicity by the amino acid substitutions which leads to a lower folding entropy.

B1: K77S N276L: PheDH-AmDH double variant, SEQ ID NO:2; PheDH library 1 hit 1H4 (protein)
chain: SLVEKTSIIKDFTLFEKMSEHEQVVFCNDPATGLRAIIAIHDTTLGPALGGCRMQPYNSVEEALEDALRLSKGMTYSCAASDVDFGGGKAVIIGDPQKDKSPELFRAFGQFVDSLGGRFYTGTDMGTNMEDFIHAMKETNCIVGVPEAYGGGGDSSIPTAMGVLYGIKATNKMLFGKDDLGGVTYAIQGLGKVGYKVAEGLLEEGAHLFVTDINEQTLEAIQEKAKTTSGSVTVVASDEIYSQEADVFVPCAFGGVVNDETMKQFKVKAIAGSANLQLLTEDHGRHLADKGILYAPDYIVNSGGLIQVADELYEVNKERVLAKTKHIYDAILEVYQQAELDQITTMEAANRMCEQRMAARGRRNSFFTSSVKPKWDIRN
**Q.** For B1, which activation energy ([1]; 10-45° C.) is on record?
**A.** Its activation energy is 241 J/mol.

**Q.** And the maximum specific activity ([1]; at 50° C., 5 M NH4Cl/NH4OH pH 9.6, 200 μM NADH, 20 mM PFPA)?
**A.** The maximum specific activity was 11.6 U mg^−1.

**Q.** And the “conversion of 4-fluorophenyl acetone” value ([2]; 7.48 mg AmDH)?
**A.** Its value is 89.4%.

**Q.** And the overall conversion ([2]; 17.46 mg AmDH)?
**A.** The overall conversion was 93.8%.

**Q.** And the “Activity, R-MBA” value [3]?
**A.** The value was 1.9 ± 1.8 mU/mg.

**Q.** What about the “Activity, S-MBA” value [3] of the same molecule?
**A.** Its value is <1.0 mU/mg.

**Q.** What about the “enantiomeric excess toward (R)-1-(4-fluorophenyl)-propyl-2-amine” value [4] of the same molecule?
**A.** Its value is > 99.8%.

**Q.** And the “enhancement above maximum kcat of LeuDH-AmDH” value [5]?
**A.** The value was ~15 fold.

**Q.** What about the “kcat, amination of PFPA” value ([5]; 500 mM NH4Cl/NH4OH pH 9.6, 200 μM NADH, apparent) of the same molecule?
**A.** Its value is 2.8 s⁻¹.

**Q.** And the Km ([5]; 500 mM NH4Cl/NH4OH pH 9.6, 200 μM NADH, read-out: KM, amination of PFPA)?
**A.** The Km was 4.37 mM.

**Q.** What about the Km ([5]; 5 M NH4Cl/NH4OH pH 9.6, 200 μM NADH, read-out: KM value of PFPA) of the same molecule?
**A.** Its Km is 7.75 mM.

**Q.** And the “kcat with all three substrates saturated” value ([5]; aqueous NH4Cl/NH4OH buffer pH 9.6, 25° C.)?
**A.** Its value is 6.85 s⁻¹.

**Q.** What about the “Activity, MIBK” value [6] of the same molecule?
**A.** Its value is 77.0 ± 1.3 mU/mg.

**Q.** What about the “Activity, cyclohexanone” value [6] of the same molecule?
**A.** The value was 27.5 ± 1.4 mU/mg.

**Q.** And the “Activity, ethylpyruvate” value [6]?
**A.** Its value is 18.4 ± 5.9 mU/mg.

**Q.** And the “decrease of melting point versus the wild type” value [7]?
**A.** Its value is 4.4 °C.

**Q.** And the melting point ([7]; 100 μg mL-1, 50 mM sodium phosphate pH 8.0)?
**A.** The melting point was 59.9 °C.
